Patent publication US20130089872A1 (LIVTECH, published 2013)
Changes are numbered by the printed parent chain. Blank lines part the entries; values can stand above or below the binder they belong to.

Tests used:
[1] = target: T1, recombinant protein of the extracellular region of hTROP-2 (human, UniProt P09758 27-263); experiment: equilibrium competition ELISA (Djavadi-Ohaniance method), recombinant hTROP-2
T1 construct: made with baculovirus, purified on Ni Sepharose; also called purified recombinant hTROP-2 protein; hTROP-2 EC; not shown: C-terminal myc/His tag from the pcDNA4/myc-His A vector
T1 sequence: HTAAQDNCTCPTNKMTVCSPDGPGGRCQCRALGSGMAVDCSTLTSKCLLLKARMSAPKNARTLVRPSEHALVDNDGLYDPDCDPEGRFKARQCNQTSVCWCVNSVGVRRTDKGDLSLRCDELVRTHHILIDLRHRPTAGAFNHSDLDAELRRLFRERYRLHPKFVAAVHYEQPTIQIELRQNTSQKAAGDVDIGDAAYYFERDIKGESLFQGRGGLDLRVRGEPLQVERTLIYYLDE
Method: The antigen binding affinity (Kd value) of the generated anti-hTROP-2 monoclonal antibody was calculated by a method using ELISA (Djavadi-Ohaniance L. et al (1996), In Antibody Engineering, Chapter 4, pp. 77-97. IRL Press, Oxford).
Specifically, the purified recombinant hTROP-2 protein (0.1 μg/mL) was added to a 96-well culture plate (Corning) so that the antigen was solid-phased (at room temperature for 1 hour, or at 4° C. overnight). Subsequently, the resultant was washed with PBS three times, and 2% skim milk (PBS solution) was then added thereto to block it (at room temperature for 1 hour). The resultant was washed with PBS twice. […] The reaction product was washed with PBS three times, and it was then reacted with HRP-labeled anti-mouse IgG (final concentration: 1 μg/mL) (GE Healthcare Biosciences) diluted with a blocking solution (at room temperature for 1 hour). Subsequently, the reaction product was washed with a 0.1% Tween20-PBS solution three times, and a TMB (3,3′,5,5′-tetramethylbenzidine: SIGMA) substrate solution was then added to the resultant to carry out a color reaction. Then, 1 M sulfuric acid was added to the reaction product to terminate the reaction. Using Microplate reader Model 550 (BIO RAD), absorbance was measured.

[2] = target: T2, hmTROP-2-C chimeric protein (human; mouse, UniProt Q8BGV3 140-317); experiment: FACS on HEK293 cells constantly expressing hmTROP-2-C
T2 construct: range 140-C-terminus; constitutively expressed on HEK293 cells; signal peptide 1-26 of hTROP-2 left out; also called human/mouse chimeric TROP-2-C; not shown: C-terminal myc/His tag from the vector
T2 sequence: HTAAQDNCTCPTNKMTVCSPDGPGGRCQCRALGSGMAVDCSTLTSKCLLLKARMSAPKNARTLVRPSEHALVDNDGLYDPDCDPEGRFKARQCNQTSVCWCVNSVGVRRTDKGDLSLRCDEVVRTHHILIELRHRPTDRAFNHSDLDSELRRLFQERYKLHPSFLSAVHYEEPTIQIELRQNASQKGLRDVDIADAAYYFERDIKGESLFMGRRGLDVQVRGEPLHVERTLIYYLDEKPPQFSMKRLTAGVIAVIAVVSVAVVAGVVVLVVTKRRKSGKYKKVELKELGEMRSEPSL

mouse TROP-2 protein = target: T3, mouse TROP-2 protein (mouse, UniProt Q8BGV3 25-317); experiment: FACS on CHO-K1 cells transiently expressing mouse TROP-2
T3 construct: whole, on cells
T3 sequence (looked up): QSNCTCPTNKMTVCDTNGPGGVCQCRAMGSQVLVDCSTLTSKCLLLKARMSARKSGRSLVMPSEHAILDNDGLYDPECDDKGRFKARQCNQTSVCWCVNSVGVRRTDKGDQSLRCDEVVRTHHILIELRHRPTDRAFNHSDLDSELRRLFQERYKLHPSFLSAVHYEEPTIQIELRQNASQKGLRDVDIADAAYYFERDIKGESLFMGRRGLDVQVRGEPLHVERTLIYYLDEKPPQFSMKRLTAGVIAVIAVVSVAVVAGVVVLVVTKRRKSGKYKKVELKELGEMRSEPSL
Description: (§1) Specifically, each of an expression vector (mouse TROP-2-pcDNA3.1(+), furnished by the Institute of Molecular and Cellular Biosciences, the University of Tokyo) comprising the full-length cDNA of a mouse TROP-2 gene (GenBank accession No. NM_{—}020047, Y08830), and an expression vector (pcDNA3.1-hEpCAM-myc/His) comprising the full-length cDNA of a human TROP-1/EpCAM gene (GenBank accession No. NM_{—}002354), was transiently introduced into CHO-K1 cells, using Lipofectamine2000 reagent (Invitrogen). Thereafter, 24 to 48 hours later, the cells were removed from a culture dish by treating them with trypsin, and a cell suspension was then prepared. The thus prepared cell suspension was successively reacted with the produced anti-hTROP-2 monoclonal antibody (0.1 μg) and with PE-labeled anti-mouse IgG, and it was then analyzed by FACSCalibur.

Table 9 peptide No. 14 = experiment: PEPSCAN/CLIPS peptide ELISA, antibody 1 ug/mL
[3] = target: T4, human TROP-2 (hTROP-2) protein (human, UniProt P09758 27-323); experiment: FACS on BxPC-3 cells (endogenous hTROP-2), 0.1 ug antibody
T4 construct: also called Tacstd2; GA733-1
T4 sequence: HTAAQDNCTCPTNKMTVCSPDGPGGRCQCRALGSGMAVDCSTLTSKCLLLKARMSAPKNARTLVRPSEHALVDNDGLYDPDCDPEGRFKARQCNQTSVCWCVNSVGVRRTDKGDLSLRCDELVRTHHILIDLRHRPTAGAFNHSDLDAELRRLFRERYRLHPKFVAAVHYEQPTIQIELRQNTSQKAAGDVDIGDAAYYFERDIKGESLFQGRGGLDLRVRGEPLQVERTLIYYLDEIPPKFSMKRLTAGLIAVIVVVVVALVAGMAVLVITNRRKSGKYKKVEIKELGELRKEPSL
Method: (§2) Cancer cells were removed from a culture dish by a trypsin treatment, and a cell suspension was then prepared (cell density: 2×10⁶ cells/mL). An anti-hTROP-2 monoclonal antibody (0.1 μg) was added to 100 μL of the cell suspension, and they were then reacted at 4° C. for 20 minutes. The reaction solution was washed with PBS, and it was then reacted with PE-labeled anti-mouse IgG (BD Biosciences Pharmingen) (0.1 μg) (at 4° C. for 30 minutes). Thereafter, the resultant was analyzed by FACSCalibur (Becton, Dickinson and Company).

[4] = target: T5, human TROP-1/EpCAM protein (human, UniProt P16422 24-314); experiment: FACS on CHO-K1 cells transiently expressing human EpCAM/TROP-1
T5 construct: whole, on cells; vector adds a C-terminal myc/His tag; also called human EpCAM/TROP-1; hEpCAM
T5 sequence (looked up): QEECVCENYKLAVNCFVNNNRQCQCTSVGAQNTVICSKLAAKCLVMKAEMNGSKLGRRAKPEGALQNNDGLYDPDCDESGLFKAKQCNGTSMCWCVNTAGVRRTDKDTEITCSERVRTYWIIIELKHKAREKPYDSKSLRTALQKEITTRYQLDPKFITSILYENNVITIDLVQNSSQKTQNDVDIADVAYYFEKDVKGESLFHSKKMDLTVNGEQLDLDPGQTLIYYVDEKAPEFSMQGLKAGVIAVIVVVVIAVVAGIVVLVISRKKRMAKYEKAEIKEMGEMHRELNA
Description: as §1

[5] = target: T4, human TROP-2 (hTROP-2) protein; experiment: FACS on PK-59 cells (endogenous hTROP-2), 0.1 ug antibody
Method: as §2

Table 9 peptide No. 26 = target: T6, Table 9 peptide No. 26; experiment: PEPSCAN/CLIPS peptide ELISA, antibody 1 ug/mL
T6 construct: CLIPS format (inferred); native Cys replaced by Ala as printed
T6 peptide: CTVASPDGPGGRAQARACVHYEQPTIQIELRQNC
Method: 5034 types of the synthesized peptides were covalently bound to PEPSCAN cards (455 peptides/card), and the binding of the synthesized peptides to antibodies was then analyzed by the ELISA method. […] After washing, the resultant was allowed to react with a 1000-fold diluted peroxidase-secondary antibody complex at 25° C. for 1 hour. After washing, a substrate solution (a solution containing 2,2′-azino-di-3-ethylbenzthiazoline sulfonate (ABTS) and 2 μL of 3% hydrogen peroxide solution) was added to the reaction solution, followed by a chromogenic reaction for 1 hour. The binding activity of the antibodies was quantified by photographing with a CCD camera and then performing an image analysis.

[6] = target: T7, hmTROP-2-A chimeric protein (human; mouse, UniProt Q8BGV3 64-317); experiment: FACS on HEK293 cells transiently expressing hmTROP-2-A
T7 construct: range 64-C-terminus; transiently expressed on HEK293 cells; also called human/mouse TROP-2-A; not shown: C-terminal myc/His tag from the vector
T7 sequence: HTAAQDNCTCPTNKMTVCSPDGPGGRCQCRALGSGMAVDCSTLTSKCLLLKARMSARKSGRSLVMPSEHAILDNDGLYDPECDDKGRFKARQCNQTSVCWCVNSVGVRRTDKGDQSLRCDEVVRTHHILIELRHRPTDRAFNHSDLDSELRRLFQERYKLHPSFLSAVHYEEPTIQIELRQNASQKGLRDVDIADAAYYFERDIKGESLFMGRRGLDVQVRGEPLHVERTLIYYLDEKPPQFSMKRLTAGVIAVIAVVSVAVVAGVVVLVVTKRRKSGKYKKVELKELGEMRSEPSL

Table 7 peptide No. 16 = experiment: PEPSCAN/CLIPS peptide ELISA, antibody 1 ug/mL
Table 7 peptide No. 19 = experiment: PEPSCAN/CLIPS peptide ELISA, antibody 1 ug/mL

B1: anti-hTROP-2 monoclonal antibody clone K5-116-2-1 (antibody, V domains shown)
VH: QVQLQQPGAELVRPGASVKLSCKASGYTFTSYWITWVKQRPGQGLEWIGNIYPSDSYTNYNQKFRDKATLTVDKSSSTAYMQLSSPTSEDSAVYYCSALFDYWGQGTTLTVSS
VL: DILLTQSPAILSVSPGERVSFSCRASQSIGTSIHWYQQRTNGSPRLLIKYASESISGIPSRFSGSGSGTDFILSINSVESEDIADYYCQQSNSWPFTFGSGTKLEIK
notes: mouse IgG; also called hybridoma FERM BP-11253
- Kd [1]: 26.9 pM
- binding result [2]: binds
- binding result (mouse TROP-2 protein): no binding (tested: 0.1 ug)
- binding (PEPSCAN ELISA signal) (Table 9 peptide No. 14): 1440
- mean fluorescence intensity relative to secondary antibody only [3]: 121 times
- binding result [4]: no binding (tested: 0.1 ug)
- mean fluorescence intensity relative to secondary antibody only [5]: 122 times
- binding (PEPSCAN ELISA signal) (Table 9 peptide No. 26): 1220
- binding result [6]: binds

B3: anti-hTROP-2 monoclonal antibody clone K5-107 (antibody, V domains shown)
VH: QVQLQQPGSELVRPGASVKLSCKASGYTFTSYWMHWVKQRHGQGLEWIGNIYPGGGYTNYDEKFKSKGTLTVDTSSSTAYMHLSSLTSEDSAVYYCTRSSVFDYWGQGTTLTVSS
VL: B1 VL with S28N, Y36F, I72T
notes: mouse IgG1 purified from hybridoma ascites; also called hybridoma FERM BP-11252
- binding result (mouse TROP-2 protein): no binding (tested: 0.1 ug)
- binding result [4]: no binding (tested: 0.1 ug)

The remaining lines, values ahead:

- Kd [1]: 6.8 pM
- binding result [2]: binds
- binding (PEPSCAN ELISA signal) (Table 7 peptide No. 16): 538
- binding (PEPSCAN ELISA signal) (Table 7 peptide No. 19): 519
- binding result (mouse TROP-2 protein): no binding (tested: 0.1 ug)
- binding result [4]: no binding (tested: 0.1 ug)
- binding result [6]: binds
B2: anti-hTROP-2 monoclonal antibody clone K5-70 (antibody, V domains shown)
VH: QVQLQQPGAELVRPGASVKLSCKASGYTFTIYWINWVKQRPGQGLEWIGNIYPSDSYTNYNQKFKDKATLTVDKSSSTAYMQLSSPTSEDSAVYYCTRTSMADYWGQGTTLTVSS
VL: B1 VL with I72T
notes: mouse IgG2a purified from hybridoma ascites; also called K-70; hybridoma FERM BP-11251

- Kd [1]: 4.3 pM
- binding result [2]: no binding
- binding result (mouse TROP-2 protein): no binding (tested: 0.1 ug)
- binding result [4]: no binding (tested: 0.1 ug)
B4: anti-hTROP-2 monoclonal antibody clone T6-16 (antibody, V domains shown)
VH: EVQLQQSGPELVKPGASVKISCKASGYTFTDYNMHWVKQSHGKNLEWIGYIYPYNGGTGYNQRFKSRATMTVDKSSSTAYMELRSLTSDDSAVYYCAREDYGSSPSYAMDYWGQGTSVIVSS
VL: DVVMTQTPLSLPVSLGDQASISCRSSQSLVHGNGNTYLHWYLQKPGQSPKLLIYKVSNRFSGVPDRFSGSGSGTDFTLKISRVEAEDLGVYFCSQTTHVPTFGSGTKLEIK
notes: mouse IgG2a purified from hybridoma ascites; also called 16-16; hybridoma FERM BP-11346
